The supplement of paper PMC9112550, “Optimization of the antimicrobial peptide Bac7 by deep mutational scanning” (BMC Biology, 2022)

System: Escherichia coli TOP10
Assay: shrunken log2 fold change of peptide-encoding DNA abundance (4.5 h post-induction vs induction); higher = less antimicrobial activity (less host growth inhibition)
Conditions: time post-induction: 4.5 h; library: site-saturation at positions 5, 18, 19, 20
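Also: peptides expressed intracellularly from a pBAD plasmid library in pooled LB shake-flask culture, induced with 0.3% L-arabinose, DNA abundance read by NGS, three biological replicates, DESeq2 with apeglm shrinkage.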

Row | Sequence | shrunken log2 fold change
1 | RRIRARPPRLPRPRPRPEWAPRP | 1.06
2 | RRIRNRPPRLPRPRPRPMALPRP | -0.0652
3 | RRIRARPPRLPRPRPRPKCTPRP | 0.316
4 | RRIRPRPPRLPRPRPRPTFHPRP | 0.0667
5 | RRIRQRPPRLPRPRPRPIEVPRP | 0.0112
6 | RRIRKRPPRLPRPRPRPCDVPRP | 0.0144
7 | RRIRHRPPRLPRPRPRPMMAPRP | 0.183
8 | RRIRGRPPRLPRPRPRPIHQPRP | -0.0704
9 | RRIRRRPPRLPRPRPRPKPHPRP | 0.536
10 | RRIRGRPPRLPRPRPRPVFGPRP | 0.556
11 | RRIRLRPPRLPRPRPRPSICPRP | -0.0314
12 | RRIRCRPPRLPRPRPRPHCPPRP | -0.508
13 | RRIRYRPPRLPRPRPRPGIYPRP | -0.288
14 | RRIRYRPPRLPRPRPRPEAVPRP | 0.0685
15 | RRIRDRPPRLPRPRPRPNPTPRP | 0.135
16 | RRIRWRPPRLPRPRPRPLGEPRP | 0.224
17 | RRIRARPPRLPRPRPRPCFIPRP | -0.333
18 | RRIRPRPPRLPRPRPRPTKSPRP | 0.777
19 | RRIRQRPPRLPRPRPRPEGLPRP | -0.0407
20 | RRIRFRPPRLPRPRPRPSRHPRP | -0.162

Row | Sequence | shrunken log2 fold change
21 | RRIRYRPPRLPRPRPRPTGPPRP | 0.0492
22 | RRIRTRPPRLPRPRPRPFARPRP | 0.00253
23 | RRIRFRPPRLPRPRPRPMIMPRP | 0.234
24 | RRIRMRPPRLPRPRPRPEQEPRP | 0.033
25 | RRIRRRPPRLPRPRPRPWSNPRP | -0.226
26 | RRIRYRPPRLPRPRPRPIFFPRP | -0.353
27 | RRIRWRPPRLPRPRPRPYSIPRP | -0.296
28 | RRIRERPPRLPRPRPRPASSPRP | 0.0151
29 | RRIRQRPPRLPRPRPRPLWEPRP | 0.025
30 | RRIRTRPPRLPRPRPRPADEPRP | -0.0108
31 | RRIRERPPRLPRPRPRPGRPPRP | 0.164
32 | RRIRWRPPRLPRPRPRPGMYPRP | 0.0165
33 | RRIRHRPPRLPRPRPRPIWKPRP | -0.0276
34 | RRIRARPPRLPRPRPRPNGMPRP | -0.0336
35 | RRIRWRPPRLPRPRPRPWTVPRP | -0.0123
36 | RRIRGRPPRLPRPRPRPPRQPRP | 1.27
37 | RRIRHRPPRLPRPRPRPMIIPRP | -0.205
38 | RRIRWRPPRLPRPRPRPVNLPRP | -0.291
39 | RRIRMRPPRLPRPRPRPRWTPRP | 0.548
40 | RRIRSRPPRLPRPRPRPMGMPRP | -0.366

Row | Sequence | shrunken log2 fold change
41 | RRIRFRPPRLPRPRPRPVERPRP | 0.0308
42 | RRIRWRPPRLPRPRPRPAMMPRP | 0.306
43 | RRIRDRPPRLPRPRPRPVQMPRP | -0.0835
44 | RRIRYRPPRLPRPRPRPLSQPRP | 0.0967
45 | RRIRPRPPRLPRPRPRPDSKPRP | -0.238
46 | RRIRTRPPRLPRPRPRPGCVPRP | 0.0396
47 | RRIRDRPPRLPRPRPRPPKAPRP | -0.122
48 | RRIRGRPPRLPRPRPRPYNAPRP | -0.332
49 | RRIRSRPPRLPRPRPRPLTEPRP | 0.21
50 | RRIRLRPPRLPRPRPRPVAFPRP | 0.0295
51 | RRIRVRPPRLPRPRPRPEWMPRP | 0.0845
52 | RRIRLRPPRLPRPRPRPDLHPRP | -0.0386
53 | RRIRNRPPRLPRPRPRPVMSPRP | 0.0178
54 | RRIRMRPPRLPRPRPRPQGGPRP | 0.631
55 | RRIRVRPPRLPRPRPRPRLGPRP | 0.223
56 | RRIRQRPPRLPRPRPRPPKDPRP | 0.0238
57 | RRIRVRPPRLPRPRPRPRAAPRP | 0.425
58 | RRIRDRPPRLPRPRPRPIPWPRP | 0.077
59 | RRIRWRPPRLPRPRPRPADMPRP | 0.0185
60 | RRIRGRPPRLPRPRPRPKCQPRP | 0.581
